The chains are these.
B1: Forkhead box protein P3 (Homo sapiens), Q9BZS1-1 (parent)
chain: MPNPRPGKPSAPSLALGPSPGASPSWRAAPKASDLLGARGPGGTFQGRDLRGGAHASSSSLNPMPPSQLQLPTLPLVMVAPSGARLGPLPHLQALLQDRPHFMHQLSTVDAHARTPVLQVHPLESPAMISLTPPTTATGVFSLKARPGLPPGINVASLEWVSREPALLCTFPNPSAPRKDSTLSAVPQSSYPLLANGVCKWPGCEKVFEEPEDFLKHCQADHLLDEKGRAQCLLQREMVQSLEQQLVLEKEKLSAMQAHLAGKMALTKASSVASSDKGSCCIVAAGSQGPVVPAWSGPREAPDSLFAVRRHLWGSHGNSTFPEFLHNMDYFKFHNMRPPFTYATLIRWAILEAPEKQRTLNEIYHWFTRMFAFFRNHPATWKNAIRHNLSLHKCFVRVESEKGAVWTVDELEFRKKRSQRPSRCSNPTPGP

The first test covers variants of B1. To be noted: with PIM1, P11309-1.
With S422A, the “effect of a mutation on the interaction” value was “decreasing interaction strength”.

The variants in a further test derive from B1. The conditions noted are these: with PIM1, P11309-1. This is another data set of the same source.
For the variant S418G, the “effect of a mutation on the interaction” value is reported as “increasing interaction strength”.
With S418A, the “effect of a mutation on the interaction” value is “decreasing interaction strength”.
In the case of S418C, the “effect of a mutation on the interaction” value is recorded as “increasing interaction strength”.
The same measure, in the same setting: as for S418D, the entry is “disrupting interaction strength”.

Source of the values: IntAct's records for PubMed 25096571.
